In US20260234242A1 (HAINAN SIMCERE ZAIMING PHARMACEUTICAL, published 2026) one finds EC50 data, which are given here for 3 molecules.

The chains are these.
T1: his-tagged human CDH6 extracellular region protein (hCDH6 ECD-his) (human, UniProt P55285 19-615)
T1 construct: also called Human CDH6-his; hCDH6-his; not shown: his tag
T1 sequence: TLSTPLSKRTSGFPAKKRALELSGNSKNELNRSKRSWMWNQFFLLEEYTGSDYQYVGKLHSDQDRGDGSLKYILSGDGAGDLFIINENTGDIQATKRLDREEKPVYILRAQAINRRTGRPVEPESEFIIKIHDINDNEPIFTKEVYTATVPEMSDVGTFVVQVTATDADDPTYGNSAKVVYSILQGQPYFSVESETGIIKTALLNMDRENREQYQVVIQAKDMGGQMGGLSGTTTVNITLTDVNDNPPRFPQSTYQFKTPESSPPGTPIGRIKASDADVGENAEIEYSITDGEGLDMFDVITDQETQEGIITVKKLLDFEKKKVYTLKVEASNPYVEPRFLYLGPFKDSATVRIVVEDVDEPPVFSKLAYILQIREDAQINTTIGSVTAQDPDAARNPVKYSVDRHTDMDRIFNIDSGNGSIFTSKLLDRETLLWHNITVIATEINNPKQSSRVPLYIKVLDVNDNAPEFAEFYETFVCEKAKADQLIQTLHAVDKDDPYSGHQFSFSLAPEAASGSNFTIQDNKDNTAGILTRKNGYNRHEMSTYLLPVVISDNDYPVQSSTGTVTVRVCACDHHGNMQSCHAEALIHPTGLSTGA

B1: CHI-CDH6-7 (antibody, human IgG1, kappa, V domains shown)
VH: EVKLVESGGGLVKPGGSLKVSCAASGFTFSDHGMAWVRQAPGKGPEWVAFISNLAYSIYYADTVTGRFTISRENAKNTLYLEMSSLRSEDTAMYYCARVYVKWYFDVWGAGTTVTVSS
VL: DIQMTQSPASLSASVGETVTITCRASENIDSYLAWYQQKQGKSPQLLVFAATLLADGVPSRFSGSGSGTQYSLKINSLQSEDVARYYCQHYYSTPLTFGAGTKLELKR
notes: also called CH1-CDH6-7; chimeric antibody of murine CDH6-7
B2: CHI-CDH6-12 (antibody, human IgG1, kappa, V domains shown)
VH: EVNLVESGGGLVQPGDSLTLSCSASGFTFTDYYMSWVRQFPGKALEWLALIRNKANSYTTEYSASVKGRFTISRDNSQSILYLQMNALRAEDSATYYCARDSYYSHDGFAYWGQGTLVTVSA
VL: DIVLTQSPASLAVSLGQRATISCRASKSVSTSSYTYMHWYQQKPGQPPKLLIKFASYLESGVPARFSGSGSGTDFTLNIHPVEEEDAATYYCQHSREFPFTFGTGTKLEIKR
notes: also called CH1-CDH6-12; chimeric antibody of murine CDH6-12
B3: DS-H01L02 (antibody, human IgG1, kappa, V domains shown)
VH: EVQLVQSGAEVKKPGASVKVSCKASGYTFTRNFMHWVRQAPGQGLEWMGWIYPGDGETEYAQKFQGRVTITADTSTSTAYMELSSLRSEDTAVYYCARGVYGGFAGGYFDFWGQGTLVTVSS
VL: DIQMTQSPSSLSASVGDRVTITCKASQNIYKNLAWYQQKPGKAPKLLIYDANTLQTGVPSRFSGSGSGSDFTLTISSLQPEDFATYFCQQYYSGWAFGQGTKVEIKR
notes: Positive control, variable regions from WO2018212136A1; also called positive control anti-human CDH6 antibody

By EC50 is commonly meant the concentration giving half of the maximal effect. A higher EC50 goes with a less potent agent.

The assay deals with T1, his-tagged human CDH6 extracellular …. Briefly: ELISA, coated antigen; ELISA, hCDH6 ECD-his coated at 1 µg/mL, antibody in solution. The method, then: Human CDH6 protein (hCDH6 ECD-his, conventionally synthesized), monkey CDH6 protein (cynoCDH6 ECD-his, conventionally synthesized; the cynoCDH6 ECD sequence was derived from Uniprot #A0A2K5TW62 (19-615)), and murine CDH6 protein (mCDH6 ECD-his, conventionally synthesized; the mCDH6 ECD sequence was derived from Uniprot #P97326 (19-615)) were diluted with PBS to a final concentration of 1 μg/mL, and added to a 96-well ELISA plate at 100 μL/well. The plate was incubated at 4° C. overnight. The next day, the plate was washed 3 times with a plate washing solution (PBS+0.01% (v/v) Tween 20), and a blocking buffer (PBS+0.01% (v/v) Tween 20+2% (w/w) BSA) was added for blocking at room temperature for 2 h. The blocking buffer was discarded, and the plate was washed 3 times. The chimeric antibodies were diluted with 1% BSA+PBS (purchased from Cytiva, Cat. No. SH30264.01) and added to the 96-well plate at 50 μL/well. After incubation at 37° C. for 2 h, the plate was washed 3 times with a plate washing solution. […] The plate was incubated at 37° C. for 1 h and then washed 5 times with a plate washing solution. A TMB substrate (purchased from Seracare, Cat. No. 5120-0077) was added at 50 μL/well and incubated at room temperature for 10 min, then a stop solution (1.0 N HCl) was added at 50 μL/well. OD450 nm values were read using a microplate reader (Biotek). Analysis was performed by the GraphPad Prism software, data were fitted, and EC50 values were calculated. The chimeric antibodies tested all had strong binding to the human CDH6 protein, the monkey CDH6 protein, and the murine CDH6 protein.
Background: ELISA stands for enzyme-linked immunosorbent assay.
B1 registered an EC50 of 0.488 nM.

The molecule B2 came in with an EC50 of 0.105 nM.

On to B3, for which the EC50 was determined as 0.168 nM.
